Publication PMC7383920, “Metabolomics analysis and metabolite‐agronomic trait associations using kernels of wheat (Triticum aestivum) recombinant inbred lines” (The Plant Journal, 2020)
Substitutions are numbered along the chain they refer to. Blank lines part the entries; values can stand above or below the molecule they belong to.

Key:
[1] = target: T1, UGT88C13 (TraesCS2B01G012000) (Triticum aestivum, UniProt A0A3B6BZ82); assay: LC-MS glucosyltransferase assay; type: biochemical; conditions: UDP-glucose as donor, Tris-HCl pH 7.5, 10 mM MgCl2, 37 °C; mainly 7-O-glucosylation
T1 construct: gene LOC123043080; also cloned in pGEX-6p-1 (GST)
T1 sequence (A0A3B6BZ82 1-489): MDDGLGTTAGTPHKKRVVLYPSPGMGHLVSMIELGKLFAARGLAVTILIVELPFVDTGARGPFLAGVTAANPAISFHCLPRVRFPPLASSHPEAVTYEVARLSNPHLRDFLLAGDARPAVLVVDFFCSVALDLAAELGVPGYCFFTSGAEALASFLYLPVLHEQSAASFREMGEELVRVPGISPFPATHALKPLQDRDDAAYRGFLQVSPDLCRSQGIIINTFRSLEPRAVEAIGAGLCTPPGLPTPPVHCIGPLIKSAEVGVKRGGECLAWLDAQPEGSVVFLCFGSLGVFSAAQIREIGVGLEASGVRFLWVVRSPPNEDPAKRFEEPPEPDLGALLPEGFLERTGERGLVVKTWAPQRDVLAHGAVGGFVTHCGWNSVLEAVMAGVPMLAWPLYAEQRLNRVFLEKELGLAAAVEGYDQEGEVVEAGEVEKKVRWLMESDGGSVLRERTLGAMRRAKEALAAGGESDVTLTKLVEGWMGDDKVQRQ

[2] = target: T2, UGT88C14 (KN9204 allele of TraesCS2B01G012000) (Triticum aestivum, UniProt Z9F0T2E170); assay: LC-MS glucosyltransferase assay; type: biochemical; conditions: UDP-glucose as donor, Tris-HCl pH 7.5, 10 mM MgCl2, 37 °C; mainly 7-O-glucosylation
T2 construct: full-length natural allele from KN9204, StrepII-tagged, expressed in and purified from N. benthamiana
T2 sequence (Z9F0T2E170 1-489): T1 sequence (A0A3B6BZ82 1-489) with S90P, V363L, A455T

purified protein [3] = substrate: O=c1c(O)c(-c2ccc(O)cc2)oc2cc(O)cc(O)c12; assay: purified protein; conditions: UDP-glucose as donor, Tris-HCl pH 7.5, 10 mM MgCl2, 37 °C, mainly 7-O-glucosylation
purified protein [4] = substrate: O=c1cc(-c2ccc(O)cc2)oc2cc(O)cc(O)c12; assay: purified protein; conditions: UDP-glucose as donor, Tris-HCl pH 7.5, 10 mM MgCl2, 37 °C, mainly 7-O-glucosylation
[5] = substrate: O=c1cc(-c2ccc(O)c(O)c2)oc2cc(O)cc(O)c12; assay: LC-MS glucosyltransferase assay; type: biochemical, Triticum aestivum; conditions: UDP-glucose as donor, Tris-HCl pH 7.5, 10 mM MgCl2, 37 °C, mainly 7-O-glucosylation

Molecule: O=c1c(O)c(-c2ccc(O)c(O)c2)oc2cc(O)cc(O)c12 [quercetin]
Km [1]: > 1000 µM

Km [2]: 21.8 ± 9.15 µM
Molecule: O=c1cc(-c2ccc(O)cc2)oc2cc(O)cc(O)c12 [apigenin]

B1: UGT88C13 (TraesCS2B01G012000) (Triticum aestivum) (protein)
chain: T1 sequence (A0A3B6BZ82 1-489)
notes: also cloned in pGEX-6p-1 (GST)
Km (purified protein [3]): 20.33 ± 5.75 µM
Km (purified protein [4]): 19.47 ± 6.76 µM
Km [5]: 22.13 ± 6.54 µM
